Consider one molecule from paper PMC4911930.

The target in this assay is CENP-T^HFD/-W complex, Q5EE01. In words: GST pull-down (Coomassie gel quantification). The settings on record: chain shown with the change, parent: est. 100, read off a plot.
CENP-T^HFD/-W complex, Q5EE01, sequence (chain, as listed by the source, chain 1 of 2): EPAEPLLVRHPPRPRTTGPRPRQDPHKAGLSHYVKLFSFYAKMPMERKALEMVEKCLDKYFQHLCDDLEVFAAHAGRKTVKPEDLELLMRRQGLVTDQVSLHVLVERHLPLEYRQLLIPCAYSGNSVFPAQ
CENP-T^HFD/-W complex, Q5EE01, sequence (Q5EE01 whole entry, chain 2 of 2): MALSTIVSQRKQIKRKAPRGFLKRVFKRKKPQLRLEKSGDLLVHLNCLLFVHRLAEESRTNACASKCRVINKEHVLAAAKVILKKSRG

Turning to EPEGEGSDAAAAAAESEIEDETFNPSEDDYEEEEEDSDED [GST-Spt16 amino acids 926–965, Q9Y5B9 E935A; E936A; G937A; D938A; S939A], the percent of parent is, setting by setting: (Exp=1) 81 % Pull-down; (Exp=2) 90 % Pull-down.
